Series [1] concerns HeLa Kyoto. In words: solubility change mitosis vs G1/S (difference of NP-40 vs SDS log2 ratios) (log2 ratio difference); higher = more soluble in mitosis.
Series [2] concerns HeLa Kyoto. The series can be described thus: solubility in G1/S (NP-40 vs SDS abundance) (log2 ratio); higher = more soluble. The note with it: cell cycle stage: G1/S.
Series [3] concerns HeLa Kyoto. The series can be described thus: thermal stability score vs G1/S (z-score of summed log2 fold changes over temperatures); higher = more thermally stable than in G1/S.
In series [4] the test system is HeLa Kyoto. In words: melting temperature (median over replicates), in situ; higher = more thermally stable.
Setting [5] is: cell cycle stage: early G1 (4.5 h after nocodazole release).
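Throughout, for melting temperature (median over replicates), in situ: HeLa Kyoto cells synchronized by double thymidine or nocodazole block, proteins quantified by TMT10plex mass spectrometry, three independent biological replicates.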
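Throughout, for solubility change mitosis vs G1/S (difference of NP-40 vs SDS log2 ratios): synchronized HeLa Kyoto cells (double thymidine block for G1/S, nocodazole release for mitosis), protein amounts in NP-40 versus SDS lysates quantified by mass spectrometry, three biological replicates.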
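Throughout, for solubility in G1/S (NP-40 vs SDS abundance): HeLa Kyoto cells arrested at G1/S by double thymidine block, proteins quantified by TMT10plex mass spectrometry in mild NP-40 versus SDS extracts, three biological replicates.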
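Throughout, for thermal stability score vs G1/S (z-score of summed log2 fold changes over temperatures): synchronized HeLa Kyoto cells, proteins quantified by TMT10plex mass spectrometry, three biological replicates, mitosis taken 0.5 h after nocodazole release, G1/S directly after double thymidine block.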

As for “MLWPRLAAAEWAALAWELLGASVLLIAVRWLVRRLGPRPGGLGRSGTPVPPPSAAAAPASGEMTMDALLARLKLLNPDDLREEIVKAGLKCGPITSTTRFIFEKKLAQALLEQGGRLSSFYHHEAGVTALSQDPQRILKPAEGNPTDQAGFSEDRDFGYSVGLNPPEEEAVTSKTCSVPPSDTDTYRAGATASKEPPLYYGVCPVYEDVPARNERIYVYENKKEALQAVKMIKGSRFKAFSTREDAEKFARGICDYFPSPSKTSLPLSPVKTAPLFSNDRLKDGLCLSESETVNKERANSYKNPRTQDLTAKLRKAVEKGEEDTFSDLIWSNPRYLIGSGDNPTIVQEGCRYNVMHVAAKENQASICQLTLDVLENPDFMRLMYPDDDEAMLQKRIRYVVDLYLNTPDKMGYDTPLHFACKFGNADVVNVLSSHHLIVKNSRNKYDKTPEDVICERSKNKSVELKERIREYLKGHYYVPLLRAEETSSPVIGELWSPDQTAEASHVSRYGGSPRDPVLTLRAFAGPLSPAKAEDFRKLWKTPPREKAGFLHHVKKSDPERGFERVGRELAHELGYPWVEYWEFLGCFVDLSSQEGLQRLEEYLTQQEIGKKAQQETGEREASCRDKATTSGSNSISVRAFLDEDDMSLEEIKNRQNAARNNSPPTVGAFGHTRCSAFPLEQEADLIEAAEPGGPHSSRNGLCHPLNHSRTLAGKRPKAPRGEEAHLPPVSDLTVEFDKLNLQNIGRSVSKTPDESTKTKDQILTSRINAVERDLLEPSPADQLGNGHRRTESEMSARIAKMSLSPSSPRHEDQLEVTREPARRLFLFGEEPSKLDQDVLAALECADVDPHQFPAVHRWKSAVLCYSPSDRQSWPSPAVKGRFKSQLPDLSGPHSYSPGRNSVAGSNPAKPGLGSPGRYSPVHGSQLRRMARLAELAAL [ANKLE2]”, the “solubility change mitosis (log2)” value in series [1] was 0.146. In addition, the “solubility in G1/S (log2)” value in series [2] was determined as 0.122. For the same substance, the thermal stability score in series [3] (setting [5]) stood at 2.02; in series [3] (cell cycle stage: mitosis), 3.19. In addition, the melting temperature was 47.5 °C in series [4] (cell cycle stage: G1/S) and 48.1 °C in series [4] (cell cycle stage: mitosis).

Regarding WDR62, the “solubility change mitosis (log2)” value in series [1] was found to be 0.187. In addition, the “solubility in G1/S (log2)” value in series [2] is -0.382. Further, the thermal stability score is 0.713 in series [3] (setting [5]) and 1.36 in series [3] (cell cycle stage: mitosis). The melting temperature in series [4] (cell cycle stage: G1/S) was found to be 49 °C; in series [4] (cell cycle stage: mitosis), 49.3 °C.

Consider “MVEEVQKHSVHTLVFRSLKRTHDMFVADNGKPVPLDEESHKRKMAIKLRNEYGPVLHMPTSKENLKEKGPQNATDSYVHKQYPANQGQEVEYFVAGTHPYPPGPGVALTADTKIQRMPSESAAQSLAVALPLQTKADANRTAPSGSEYRHPGASDRPQPTAMNSIVMETGNTKNSALMAKKAPTMPKPQWHPPWKLYRVISGHLGWVRCIAVEPGNQWFVTGSADRTIKIWDLASGKLKLSLTGHISTVRGVIVSTRSPYLFSCGEDKQVKCWDLEYNKVIRHYHGHLSAVYGLDLHPTIDVLVTCSRDSTARIWDVRTKASVHTLSGHTNAVATVRCQAAEPQIITGSHDTTIRLWDLVAGKTRVTLTNHKKSVRAVVLHPRHYTFASGSPDNIKQWKFPDGSFIQNLSGHNAIINTLTVNSDGVLVSGADNGTMHLWDWRTGYNFQRVHAAVQPGSLDSESGIFACAFDQSESRLLTAEADKTIKVYREDDTATEETHPVSWKPEIIKRKRF [PLRG1]”, for which the “solubility change mitosis (log2)” value in series [1] came to 0.247. Moreover, in series [2], the “solubility in G1/S (log2)” value is -0.776. The thermal stability score in series [3] (setting [5]) is -0.0826; in series [3] (cell cycle stage: mitosis), -5.45. In addition, the melting temperature in series [4] (cell cycle stage: G1/S) and in series [4] (cell cycle stage: mitosis) was 50.6 °C throughout.

The record behind these values is the supplement of paper PMC5998384.
